Where a chain is given by its changes, count along the chain named. Names and notes keep the numbering of the source.

The target in the assay is T1, human HER2 and HER4 (Homo sapiens, UniProt Q15303).
T1 construct: expressed in transfected cells
The assay is described as follows: Screening by human HER2-HER4 mediated ERK 1/2 phosphorylation in CHO-hHER2-hHER4 (clone 1H6) cells. It is filed as cell-based. As to conditions: Fc variants as 293F supernatants. The protocol: A cell based assay utilizing CHO-K1 cells overexpressing human or rat HER receptors is used to determine activity of NRG4 compounds. CHO-K1 cells (ATCC) are grown in DMEM-F12 3:1 with 5% FBS with 20 mM HEPES, 40 μg/mL L-Proline, lx antibiotics and were split 1:5 every 2-3 days with TripLE Express (Gibco). Cells are transfected with plasmid DNA encoding HER receptors in pairs (hHER2-3, hHER2-4, rHER2-3 and rHER2-4) with Fugene 6 (Promega) according to the manufacturer's instructions. […] Transfected cells are selected with Puromycin (12 ug/ml) and Hygromycin (1 mg/ml) for 3-4 weeks and clonal lines are obtained by limited dilution cloning into 96 well plates. Clonal lines are selected by appropriate gene expression of HER2, HER3 or HER4 by Taqman method. Lines with appropriate receptor expression are confirmed by NRG1 induced phospho-ERK 1/2 responses. Clones are grown up, harvested, aliquoted into cryovials and then frozen under liquid nitrogen for long-term storage.
A phospho-ERK1/2 activity assay is used to determine potencies of NRG4 compounds. The potency of Examples 1-8 and 10 as compared to WT human NRG1 and/or human NRG4 are analyzed in studies measuring stimulation of human HER2-HER4 mediated ERK 1/2 phosphorylation. This assay comprises a CHO-K1 stable line expressing human HER2 and HER4. CHO-hHER2-hHER4 (clone 1H6) cells are routinely cultured in DMEM: F12(3:1), 5% FBS, 40 μg/mL L-Proline, 10 μg/mL puromycin and 1 mg/mL hygromycin at 37° C., 5% CO2. Cells are washed twice with 1×PBS, dissociated with 0.05% trypsin/[…] EDTA and collected by centrifugation at 300×g for 10 m. Cells are re-suspended in maintenance media. 20,000 cells/well, in 30 μL, are seeded into 384 well Poly-D-Lysine cell culture plates (Greiner, Cat No. 781946). Plates are covered with a manufacturer's lid and moved to a 37° C. tissue culture incubator at 5% CO^2, 80%+ humidity and allowed to adhere. After 24 h, media are removed from the plates and replaced with 30 μL serum-free starvation media (Low glucose DMEM with 0.1% BSA) using a Biomek FX liquid handler. Plates are returned to the incubator for 24 h.
hFcNRG4 variants, transiently expressed as 293F supernatants, are prepared in starvation media in a clear 384W plate (Greiner, cat no. 781185) as a 4pt 1:8 serial dilution (dose range averaged between 250 pM to 140000 pM). Media are removed from the cell culture plates and the 30 uL/well prepared variants are stamped into the plates using a Biomek FX liquid handler. Plates are sealed with a foil seal and stimulated for 15 minutes at room temperature on an orbital shaker. Cells are then washed once with 50 uL cold PBS. 30 uL lysis buffer is added to the cells and oscillated for 10 m at RT on an orbital shaker.
Detection of phosphorylation of ERR 1/2 is performed with either an AlphaScreen SureFire phospho-ERK1/2 kit (T202/Y204) (Perkin Elmer, catalog no. TGRES) or an AlphaLISA® SureFire® Ultra™ p ERK1/2 assay kit together with the AlphaScreen Protein. A IgG Detection Kit (Protein-A) (PerkinElmer, catalogue no. 6760617). After lysis of the CHO-K1 cells. 4 μL lysate is transferred to a 384W Alpha Proxiplate (Perkin Elmer, cat no, 6008280) with a 384W Biomek FX. 4 uL positive and negative lysates (Perkin Elmer, TGRES-L) are added to available wells as controls. 5 uL/well acceptor mix (containing anti-phoso-Thr202/Tyr204 antibodies and Protein A conjugated acceptor beads) is added to the plate with a Forumlatrix Mantis. The plate is sealed, spun down for 1 min at 300×g and incubated for 2 hr at room temperature on an orbital shaker. 2 μL/well donor mix (containing strepavidin coated donor beads and biotinylated antibodies to a distal ERK1/2 epitope) is dispensed by Mantis. The plate is sealed, spun down for 1 min at 300×g and incubated for 2 hr at room temperature on an orbital shaker before reading on the Perkin Elmer Envision 2103 Multilabel Reader (HIS Alpha mode, excitation time: 40 ms, total measurement time: 130 ms). […]

The term EC50 denotes the concentration at which the effect is half-maximal. “WT NRG4: wild type human NRG4 (SEQ ID NO:1); parental hFcNRG4 in screening (Tables 4-6), native peptide from Reprokine in Tables 7-9 (DHEEPCGPSHKSFCLNGGLCYVIPTIPSPFCRCVENYTGARCEEVFL; listed as Homo sapiens)”: the EC50 reads like this: (Table 5, Examples average of two replicates ± standard deviation) 2.53 nM; (Table 6) 1.3 nM. Take “WT NRG1: wild type human NRG1; native peptide purchased from Reprokine in Tables 7-9; comparator in the screening assays of Tables 4 and 6”: the response (Table 6) was half-maximal at 0.319 nM (EC50).

B1: Example 10: NRG4 D1G/V22Q/E44K, (GGGGS)3 linker, SEQ ID NO: 19, fused to IgG Fc dimer SEQ ID NO: 6 and 7 (protein)
chain 1: GGGGSGGGGSGGGGSGHEEPCGPSHKSFCLNGGLCYQIPTIPSPFCRCVENYTGARCEKVFL
chain 2: ECPPCPAPPVAGPSVFLFPPKPKDTLMISRTPEVTCVVVDVSHEDPEVQFNWYVDGVEVHNAKTKPREEQFNSTFRVVSVLTVVHQDWLNGKEYKCKVSNKGLPAPIEKTISKTKGQPREPQVYTLPPSREEMTKNQVSLWCLVKGFYPSDIAVEWESNGQPENNYKTTPPVLDSDGSFFLYSKLTVDKSRWQQGNVFSCSVMHEALHNHYTQKSLSLSPG
chain 3: B1 chain 2 with W141S, L143A, Y182V
Consider B1, for which, where the note is “Table 6”, it took 0.245 nM to reach a half-maximal effect (EC50). The EC50 values of the last two molecules are within 1.5-fold of each other.

The values are drawn from patent US11242370B2, “Neuregulin-4 compounds and methods of use” (Eli Lilly and Company, priority 2019, dated 2022).
